Reference: IntAct's records for PubMed 20562859

Key:
[1] = target: T1, atg13_human ATG13 (UniProt O75143)
T1 sequence: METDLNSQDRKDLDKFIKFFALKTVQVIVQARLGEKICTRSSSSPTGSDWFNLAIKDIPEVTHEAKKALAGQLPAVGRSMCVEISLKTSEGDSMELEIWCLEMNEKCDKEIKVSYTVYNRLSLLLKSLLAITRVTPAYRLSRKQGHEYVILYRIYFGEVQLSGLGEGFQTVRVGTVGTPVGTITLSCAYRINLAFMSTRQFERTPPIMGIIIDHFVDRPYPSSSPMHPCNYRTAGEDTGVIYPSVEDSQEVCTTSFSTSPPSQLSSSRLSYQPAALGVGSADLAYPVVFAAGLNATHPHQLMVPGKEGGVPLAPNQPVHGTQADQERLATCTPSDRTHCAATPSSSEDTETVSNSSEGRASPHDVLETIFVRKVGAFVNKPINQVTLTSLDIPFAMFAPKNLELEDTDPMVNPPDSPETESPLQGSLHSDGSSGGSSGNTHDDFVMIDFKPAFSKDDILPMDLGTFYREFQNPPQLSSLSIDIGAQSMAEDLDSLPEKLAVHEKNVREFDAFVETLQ

[2] = target: fan_human NSMAF (UniProt Q92636)
[3] = target: kap0_human PRKAR1A (UniProt P10644)
[4] = target: T2, nek9_human NEK9 (UniProt Q8TD19)
T2 sequence: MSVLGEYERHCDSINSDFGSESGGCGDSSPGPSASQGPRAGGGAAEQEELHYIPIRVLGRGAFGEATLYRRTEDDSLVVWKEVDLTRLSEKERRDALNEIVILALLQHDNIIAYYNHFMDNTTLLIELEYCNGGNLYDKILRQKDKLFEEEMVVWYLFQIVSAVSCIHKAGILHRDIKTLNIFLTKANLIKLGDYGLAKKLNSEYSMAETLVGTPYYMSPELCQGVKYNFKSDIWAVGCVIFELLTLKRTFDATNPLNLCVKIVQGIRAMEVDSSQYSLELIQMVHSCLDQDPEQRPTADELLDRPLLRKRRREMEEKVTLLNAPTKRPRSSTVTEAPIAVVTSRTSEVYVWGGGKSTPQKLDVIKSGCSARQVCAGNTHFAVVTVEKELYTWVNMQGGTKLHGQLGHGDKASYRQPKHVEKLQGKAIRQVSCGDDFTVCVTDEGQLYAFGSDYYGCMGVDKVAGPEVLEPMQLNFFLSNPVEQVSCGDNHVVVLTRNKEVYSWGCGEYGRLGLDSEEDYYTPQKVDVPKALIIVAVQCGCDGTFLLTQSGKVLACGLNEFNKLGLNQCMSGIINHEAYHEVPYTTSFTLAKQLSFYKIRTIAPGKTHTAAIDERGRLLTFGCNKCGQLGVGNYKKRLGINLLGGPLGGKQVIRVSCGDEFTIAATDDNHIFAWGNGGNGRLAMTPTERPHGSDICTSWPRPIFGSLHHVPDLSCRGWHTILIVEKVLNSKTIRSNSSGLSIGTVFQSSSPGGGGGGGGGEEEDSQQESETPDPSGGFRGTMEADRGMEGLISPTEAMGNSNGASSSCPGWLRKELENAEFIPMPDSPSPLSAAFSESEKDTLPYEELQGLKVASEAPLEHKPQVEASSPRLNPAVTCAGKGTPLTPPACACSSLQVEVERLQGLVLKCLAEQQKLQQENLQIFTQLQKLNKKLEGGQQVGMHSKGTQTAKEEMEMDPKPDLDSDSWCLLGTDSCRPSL

Chain of fan_human NSMAF (Q92636 whole entry): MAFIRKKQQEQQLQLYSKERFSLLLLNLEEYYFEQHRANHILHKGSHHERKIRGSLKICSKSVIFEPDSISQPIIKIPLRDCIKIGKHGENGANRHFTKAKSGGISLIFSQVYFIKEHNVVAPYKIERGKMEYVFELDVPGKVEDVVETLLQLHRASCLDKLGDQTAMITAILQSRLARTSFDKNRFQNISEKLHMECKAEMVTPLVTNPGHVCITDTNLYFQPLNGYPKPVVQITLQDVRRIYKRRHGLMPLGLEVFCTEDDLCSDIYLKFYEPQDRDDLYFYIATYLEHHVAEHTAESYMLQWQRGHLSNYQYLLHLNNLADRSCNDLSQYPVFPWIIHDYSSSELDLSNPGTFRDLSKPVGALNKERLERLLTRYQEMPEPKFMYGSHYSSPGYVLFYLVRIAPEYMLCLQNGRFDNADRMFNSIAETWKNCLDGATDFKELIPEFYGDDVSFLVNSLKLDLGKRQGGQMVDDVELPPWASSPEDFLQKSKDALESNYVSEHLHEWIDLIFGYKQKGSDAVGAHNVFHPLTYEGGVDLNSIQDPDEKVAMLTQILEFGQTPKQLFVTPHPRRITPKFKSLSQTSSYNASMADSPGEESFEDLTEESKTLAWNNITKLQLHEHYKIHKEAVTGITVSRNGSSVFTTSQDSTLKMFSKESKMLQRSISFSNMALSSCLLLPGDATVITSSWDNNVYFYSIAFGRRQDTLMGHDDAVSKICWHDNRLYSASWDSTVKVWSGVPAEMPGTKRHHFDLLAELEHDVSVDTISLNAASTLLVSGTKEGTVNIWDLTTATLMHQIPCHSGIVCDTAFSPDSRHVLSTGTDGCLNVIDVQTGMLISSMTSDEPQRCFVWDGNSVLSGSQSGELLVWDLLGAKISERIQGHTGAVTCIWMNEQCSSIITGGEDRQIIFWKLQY
Chain of kap0_human PRKAR1A (P10644 whole entry): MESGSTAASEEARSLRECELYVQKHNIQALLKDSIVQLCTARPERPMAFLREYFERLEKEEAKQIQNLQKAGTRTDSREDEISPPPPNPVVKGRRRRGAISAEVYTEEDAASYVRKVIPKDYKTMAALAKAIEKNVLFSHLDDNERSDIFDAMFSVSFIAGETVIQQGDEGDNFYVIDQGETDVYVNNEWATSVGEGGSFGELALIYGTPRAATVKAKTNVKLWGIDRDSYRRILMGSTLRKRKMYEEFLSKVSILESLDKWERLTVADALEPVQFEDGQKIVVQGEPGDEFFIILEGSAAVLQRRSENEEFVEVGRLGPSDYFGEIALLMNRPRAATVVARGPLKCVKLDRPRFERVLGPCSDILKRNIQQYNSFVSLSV

| Substance | effect of a mutation on the interaction [1] | effect of a mutation on the interaction [2] | effect of a mutation on the interaction [3] | effect of a mutation on the interaction [4] |
| --- | --- | --- | --- | --- |
| Microtubule-associated protein 1 light chain 3 beta (Homo sapiens) (from UniProt Q9GZQ8) R69A | decreasing interaction | disrupting interaction | decreasing interaction |  |
| Microtubule-associated protein 1 light chain 3 beta (Homo sapiens) (from UniProt Q9GZQ8) F52A;L53A |  |  |  | decreasing interaction |
